In US8093037B2, “Engineered microorganisms with enhanced fermentation activity” (Verdezyne, Inc., priority 2009, dated 2012):
“And” between values parts separate entries of the source, which are not always exact repeats. Equal values may be shown once.

B1: XI-R: native xylose isomerase of Ruminococcus flavefaciens strain 17, SEQ ID NO: 31 (protein, listed as Ruminococcus flavefaciens)
chain: MEFFSNIGKIQYQGPKSTDPLSFKYYNPEEVINGKTMREHLKFALSWWHTMGGDGTDMFGCGTTDKTWGQSDPAARAKAKVDAAFEIMDKLSIDYYCFHDRDLSPEYGSLKATNDQLDIVTDYIKEKQGDKFKCLWGTAKCFDHPRFMHGAGTSPSADVFAFSAAQIKKALESTVKLGGNGYVFWGGREGYETLLNTNMGLELDNMARLMKMAVEYGRSIGFKGDFYIEPKPKEPTKHQYDFDTATVLGFLRKYGLDKDFKMNIEANHATLAQHTFQHELRVARDNGVFGSIDANQGDVLLGWDTDQFPTNIYDTTMCMYEVIKAGGFTNGGLNFDAKARRGSFTPEDIFYSYIAGMDAFALGFRAALKLIEDGRIDKFVADRYASWNTGIGADIIAGKADFASLEKYALEKGEVTASLSSGRQEMLESIVNNVLFSL

What was measured:
[1] = Heterologous xylose isomerase expression in yeast (active yes/no); format: cell-based, Saccharomyces cerevisiae; conditions: xylose isomerase of donor organism expressed in engineered yeast (S. cerevisiae)
[2] = Xylose isomerase activity assay (sorbitol dehydrogenase/NADH coupled, Kuyper et al.), soluble whole cell extract; format: biochemical, Saccharomyces cerevisiae
xylose isomerase = assay: Xylose isomerase assay in the presence of xylitol (inhibition constant); format: biochemical; conditions: chimeric variants table; inhibitor xylitol
Experimental: Approximately 20 μg of soluble whole cell extract from each transformed cell line, prepared using Y-PER plus reagent as described above, was incubated in a solution containing about 100 mM Tris, pH 7.5, 10 mM MgCl ? 2, 0.15 mM NADH (Sigma, St. Louis, Mo.), and 2 U Sorbitol Dehydrogenase (SDH) (Roche, Indianapolis, Ind.) at about 30° C. […] A Beckman DU-800 spectrophotometer was utilized with an Enzyme Mechanism software package (Beckman Coulter, Inc, Brea, Calif.), and the change in the A340 was monitored for 2-3 minutes.

C5 strain = assay: Xylose fermentation of C5 strain transformed with xylose isomerase constructs; format: cell-based, Saccharomyces cerevisiae
From the text: The engineered strain was designed to include the following genetic modifications: the native Pho13 gene (alkaline phosphatase specific for p-nitrophenyl phosphate) was disrupted by inserting a construct containing the native TLK1 gene (Transketolase-1); the native aldose reductase gene (Gre3) was disrupted by inserting a construct containing the native high-affinity glucose transporter-7 gene (HXT7); the native glucose-repressible alcohol dehydrogenase II gene (adh2) was disrupted by inserting a construct containing the native xylulokinase gene (XYLK); and the native orotidine-5′ phosphate decarboxylase gene (ura3) was disrupted by inserting a construct containing the native transaldolase 1 gene (TAL1). The resulting strain had the following genotype: pho13::TKL1, gre3::HXT7, adh-2::XYLK, ura3::TAL1.
The C5 strain was transformed using standard protocols with either p426GPD (as a control) or the chimeric variants XI-R, XI-Rp5, XI-Rp10, or XI-Rp15. The transformed cells were grown on SC-glucose minus uracil initially and then passaged onto SC-xylose minus uracil. Cultures of each of the above constructs were made in SC-xylose minus uracil—and grown for one week. The cultures were grown aerobically at 30° C. with 250 rpm agitation, 1 vvm sparge of process air, 21% O2. The pH was controlled at about 5.0 with 1N NaOH. […] At 24 hours elapsed fermentation time the fermentation was switched to anaerobic conditions. […] Oxygen was purged with 100% N2 sparge at 1 vvm until percent O2 was below 1%. Aeration was then set at 0.25 vvm 100% N2.
The final sample also measured biomass by dry cell weight.

[3] = tested on: Saccharomyces cerevisiae (strain BF903); assay: Industrial yeast strain evaluation: aerobic growth and xylose consumption in YP-xylose; format: cell-based; conditions: 30° C., 7 days
Experimental: A commercially available industrial diploid strain of Saccharomyces cerevisiae (strain BF903; “Stillspirits” triple distilled yeast, Brewcraft, Albany, New Zealand; available at Hydrobrew, Oceanside, Calif.) was obtained and was made competent for transformation using known yeast cell transformation procedures. […] Transformed yeast containing each construct were grown overnight aerobically in a 15 ml culture tube on YPD media containing 2% glucose. After about 24 hours, about 25 ml of YP media containing 2% glucose and 100 μg/ml G418 was seeded with the cells at an initial OD600 of 0.5 in a 250 ml Erlenmeyer flask and grown aerobically at 30° C. The cultures were then passaged once every 7 days into fresh media, also at an initial OD600 of 0.5.
Measurements were taken of the cell optical density (OD600) to assess cell density and plated onto YPD with 100 μg/ml G418 to ensure that the plasmid was stable. […] The strains were then grown overnight in YPD (with 100 μg/ml G418) and used to inoculate about 50 ml YP-xylose (with 100 μg/ml G418) into disposable 250 ml Erlenmeyer flasks with vented caps at an initial OD600 of about 1. The cultures were allowed to grow aerobically at 30° C. at 200 rpm for 7 days.

[4] = tested on: Saccharomyces cerevisiae (strain BF903); assay: Industrial yeast strain evaluation: ethanol production on xylose in sealed serum bottles; format: cell-based; conditions: strain BF903, YP plus xylose, sealed serum bottle
Experimental: The serum bottles were sealed with a butyl rubber stopper to prevent air exchange. As a result, the cultures became anaerobic once the available oxygen in the serum bottle was utilized. In general, anaerobiosis (e.g., the onset of anaerobic conditions) occurred a few hours after the culture was inoculated. Xylose utilization, ethanol production and cell growth were measured every twenty four hours.

| Molecule | Active? (yes/no) [1] | Specific Activity ([2]; chimeric variants table, xylose 40-500 mM, soluble whole cell extract) [µmol/min/mg] | Ki (xylose isomerase) [mM] | Dry Cell Wt (C5 strain; final sample at 372 hours) | Ethanol (C5 strain; final sample at 372 hours) | Glucose (C5 strain; final sample at 372 hours) [g/L] | Xylose (C5 strain; final sample at 372 hours) | OD600 nm (C5 strain; final sample at 372 hours after commencing fermentation) | xylose consumption [3] | cell growth (cell density) [4] | ethanol production [4] | Specific Activity ([2]; xylose isomerase expressed in S. cerevisiae, total soluble crude extract, xylose concentrations between 40 and 500 nM (so in the source), Michaelis-Menten plot) [µmol/min/mg] |
| --- | --- | --- | --- | --- | --- | --- | --- | --- | --- | --- | --- | --- |
| XI-P: xylose isomerase from Piromyces strain E2, SEQ ID NO: 35 | Yes | 2.02 | 4.79 |  |  |  |  |  |  |  |  |  |
| B1 | Yes |  |  | 2.20 g/L and 2.03 g/L | 15.65 g/L and 15.5 g/L | 0 | 3.14 g/L and 3.85 g/L | 7.72 and 7.32 | more efficient at consuming xylose | grew to a higher cell density | produced more ethanol | 0.9605 |
